Experimental data reported in PMC3877283, “Development of Novel Radiogallium-Labeled Bone Imaging Agents Using Oligo-Aspartic Acid Peptides as Carriers” (PLoS ONE, 2013).
Read-outs that look alike come from different tables or passages of the source. Marks after values point to notes of the source that are not given here. Peptide text beside a SMILES is read from it. * marks the point of attachment. DOTA = O=C(O)CN1CCN(CC(=O)O)CCN(CC(=O)*)CCN(CC(=O)O)CC1

Assays:
[1] = Biodistribution experiments in normal mice; type: in vivo, ddY mice; conditions: normal mice, i.v.
Experimental: (§1) Experiments with animals were conducted in strict accordance with the Guidelines for the Care and Use of Laboratory Animals of Kanazawa University. The animal experimental protocols used were approved by the Committee on Animal Experimentation of Kanazawa University (Permit Number: AP-132633). Biodistribution experiments were performed after an intravenous administration of each diluted tracer solution (37 kBq/100 µL) to 6-week-old male ddY mice (27–32 g, Japan SLC, Inc., Hamamatsu, Japan). To investigate the effect of an excess amount of bisphosphonate on biodistribution, alendronate (20 mg/kg) was intravenously administered to mice 1 minute before the intravenous injection of ^67Ga-DOTA-(Asp)14 or ^67Ga-DOTA-Bn-SCN-HBP. Four to six mice each were sacrificed by decapitation at 10, 60, and 180 minutes post-injection. Tissues of interest were removed and weighed. Complete left femurs were isolated as representative bone samples, radioactivity was determined using an auto well gamma counter, and counts were corrected for background radiation and physical decay during counting.

[2] = Biodistribution experiments in mice with pretreatment of alendronate (20 mg/kg); type: in vivo, ddY mice; conditions: for Radioactivity in Bone (Femur): Bone (complete left femur); for Radioactivity in Stomach: Stomach (footnote b)
Experimental: as §1

[3] = 10 min after i.v. administration, alendronate 20 mg/kg i.v. 1 minute before, male ddY mice, mean (SD) for five or six animals
[4] = 60 min (1 h) after i.v. administration, alendronate 20 mg/kg i.v. 1 minute before, male ddY mice, mean (SD) for five or six animals
[5] = 180 min (3 h) after i.v. administration, alendronate 20 mg/kg i.v. 1 minute before, male ddY mice, mean (SD) for five or six animals

Which “accumulation of radioactivity in the femur (in words)” value [1] does the source give for O=C(O)C[C@H](NC(=O)[C@H](CC(=O)O)NC(=O)[C@H](CC(=O)O)NC(=O)[C@H](CC(=O)O)NC(=O)[C@H](CC(=O)O)NC(=O)[C@H](CC(=O)O)NC(=O)[C@H](CC(=O)O)NC(=O)[C@H](CC(=O)O)NC(=O)[C@H](CC(=O)O)NC(=O)[C@H](CC(=O)O)NC(=O)[C@H](CC(=O)O)NC(=O)[C@H](CC(=O)O)NC(=O)[C@H](CC(=O)O)NC(=O)[C@H](CC(=O)O)NC(=O)CN1CCN(CC(=O)O)CCN(CC(=O)O)CCN(CC(=O)O)CC1)C(=O)O [67Ga-DOTA-(Asp)14, metal not drawn] ({DOTA}-DDDDDDDDDDDDDD-OH) here?
The value was “higher accumulation”.

And the “F/B ratio (Femur:blood ratio)” value [2, 3]?
Its value is 4.50 (0.63) ^**.

And the “F/B ratio (Femur:blood ratio)” value [2, 4]?
Its value is 52.96 (17.28) ^**.

And the “F/B ratio (Femur:blood ratio)” value [2, 5]?
The value was 229.73 (67.08) ^**.

And the “Radioactivity in Blood” value ([2]; Blood, 60 min (1 h) after i.v. administration, alendronate 20 mg/kg i.v. 1 minute before, male ddY mice, mean (SD) for five or six animals)?
Its value is 0.23 (0.05) ^** % injected dose.

And the “Radioactivity in Blood” value ([2]; Blood, 180 min (3 h) after i.v. administration, alendronate 20 mg/kg i.v. 1 minute before, male ddY mice, mean (SD) for five or six animals)?
Its value is 0.06 (0.02) ^** % injected dose.

What about the “Radioactivity in Bone (Femur)” value [2, 3] of the same compound?
Its value is 8.59 (0.55) ^** % injected dose.

And the “Radioactivity in Bone (Femur)” value [2, 4]?
Its value is 11.81 (1.95) % injected dose.

And the “Radioactivity in Bone (Femur)” value [2, 5]?
Its value is 12.88 (2.30) % injected dose.

And the “Radioactivity in Brain” value [2, 3]?
The value was 0.05 (0.01) % injected dose.

What about the “Radioactivity in Brain” value [2, 4] of the same compound?
Its value is 0.02 (0.00) ^* % injected dose.

And the “Radioactivity in Brain” value [2, 5]?
The value was 0.01 (0.00) % injected dose.

And the “Radioactivity in Heart” value ([2]; Heart, 60 min (1 h) after i.v. administration, alendronate 20 mg/kg i.v. 1 minute before, male ddY mice, mean (SD) for five or six animals)?
The value was 0.24 (0.08) ^** % injected dose.

And the “Radioactivity in Heart” value ([2]; Heart, 180 min (3 h) after i.v. administration, alendronate 20 mg/kg i.v. 1 minute before, male ddY mice, mean (SD) for five or six animals)?
The value was 0.15 (0.07) ^** % injected dose.

And the “Radioactivity in Kidney” value ([2]; Kidney, 60 min (1 h) after i.v. administration, alendronate 20 mg/kg i.v. 1 minute before, male ddY mice, mean (SD) for five or six animals)?
The value was 3.28 (0.82) ^** % injected dose.

And the “Radioactivity in Kidney” value ([2]; Kidney, 180 min (3 h) after i.v. administration, alendronate 20 mg/kg i.v. 1 minute before, male ddY mice, mean (SD) for five or six animals)?
The value was 3.34 (0.92) ^** % injected dose.

What about the “Radioactivity in Large-intestine” value [2, 3] of the same compound?
The value was 0.40 (0.08) ^* % injected dose.

What about the “Radioactivity in Large-intestine” value [2, 4] of the same compound?
The value was 0.08 (0.01) ^** % injected dose.

What about the “Radioactivity in Large-intestine” value [2, 5] of the same compound?
The value was 0.33 (0.07) ^** % injected dose.

And the “Radioactivity in Liver” value ([2]; Liver, 60 min (1 h) after i.v. administration, alendronate 20 mg/kg i.v. 1 minute before, male ddY mice, mean (SD) for five or six animals)?
The value was 1.39 (0.29) ^** % injected dose.

What about the “Radioactivity in Liver” value ([2]; Liver, 180 min (3 h) after i.v. administration, alendronate 20 mg/kg i.v. 1 minute before, male ddY mice, mean (SD) for five or six animals) of the same compound?
The value was 1.27 (0.72) ^** % injected dose.

And the “Radioactivity in Lung” value ([2]; Lung, 180 min (3 h) after i.v. administration, alendronate 20 mg/kg i.v. 1 minute before, male ddY mice, mean (SD) for five or six animals)?
The value was 2.49 (1.78) ^* % injected dose.

And the “Radioactivity in Muscle” value ([2]; Muscle, 60 min (1 h) after i.v. administration, alendronate 20 mg/kg i.v. 1 minute before, male ddY mice, mean (SD) for five or six animals)?
Its value is 0.11 (0.07) % injected dose.

What about the “Radioactivity in Muscle” value ([2]; Muscle, 180 min (3 h) after i.v. administration, alendronate 20 mg/kg i.v. 1 minute before, male ddY mice, mean (SD) for five or six animals) of the same compound?
The value was 0.05 (0.02) % injected dose.

What about the “Radioactivity in Pancreas” value [2, 3] of the same compound?
The value was 0.72 (0.12) ^** % injected dose.

What about the “Radioactivity in Pancreas” value [2, 4] of the same compound?
The value was 0.15 (0.02) ^** % injected dose.

What about the “Radioactivity in Pancreas” value [2, 5] of the same compound?
The value was 0.12 (0.07) ^* % injected dose.

And the “Radioactivity in Small-intestine” value [2, 3]?
The value was 0.53 (0.09) ^* % injected dose.

What about the “Radioactivity in Small-intestine” value [2, 4] of the same compound?
Its value is 0.22 (0.05) ^** % injected dose.

What about the “Radioactivity in Small-intestine” value [2, 5] of the same compound?
The value was 0.29 (0.12) ^** % injected dose.

And the “Radioactivity in Spleen” value ([2]; Spleen, 60 min (1 h) after i.v. administration, alendronate 20 mg/kg i.v. 1 minute before, male ddY mice, mean (SD) for five or six animals)?
The value was 1.03 (0.35) ^** % injected dose.

What about the “Radioactivity in Spleen” value ([2]; Spleen, 180 min (3 h) after i.v. administration, alendronate 20 mg/kg i.v. 1 minute before, male ddY mice, mean (SD) for five or six animals) of the same compound?
Its value is 0.89 (0.59) ^* % injected dose.

And the “Radioactivity in Stomach” value [2, 3]?
Its value is 0.36 (0.09) ^* % injected dose.

What about the “Radioactivity in Stomach” value [2, 4] of the same compound?
The value was 0.15 (0.12) % injected dose.

And the “Radioactivity in Stomach” value [2, 5]?
Its value is 0.11 (0.04) ^** % injected dose.

And the “effect of alendronate pretreatment on accumulation in bone (in words)” value ([2]; alendronate 20 mg/kg i.v. 1 minute before tracer, mice)?
Its value is “comparatively little effect”.

What about the tissue uptake dose at 10 min ([2]; male, ddY, mouse, in vivo, iv, total radioactivity, Blood, 10 min after i.v. administration, alendronate 20 mg/kg i.v. 1 minute before, male ddY mice, mean (SD) for five or six animals, read-out: Radioactivity in Blood) of the same compound?
The tissue uptake dose at 10 min was 1.94 %ID.

What about the tissue uptake dose at 10 min ([2]; male, ddY, mouse, in vivo, iv, total radioactivity, Heart, 10 min after i.v. administration, alendronate 20 mg/kg i.v. 1 minute before, male ddY mice, mean (SD) for five or six animals, read-out: Radioactivity in Heart) of the same compound?
The tissue uptake dose at 10 min was 0.88 %ID.

And the tissue uptake dose at 10 min ([2]; male, ddY, mouse, in vivo, iv, total radioactivity, Kidney, 10 min after i.v. administration, alendronate 20 mg/kg i.v. 1 minute before, male ddY mice, mean (SD) for five or six animals, read-out: Radioactivity in Kidney)?
Its tissue uptake dose at 10 min is 16.7 %ID.

And the tissue uptake dose at 10 min ([2]; male, ddY, mouse, in vivo, iv, total radioactivity, Liver, 10 min after i.v. administration, alendronate 20 mg/kg i.v. 1 minute before, male ddY mice, mean (SD) for five or six animals, read-out: Radioactivity in Liver)?
Its tissue uptake dose at 10 min is 2.2 %ID.

And the tissue uptake dose at 10 min ([2]; male, ddY, mouse, in vivo, iv, total radioactivity, Lung, 10 min after i.v. administration, alendronate 20 mg/kg i.v. 1 minute before, male ddY mice, mean (SD) for five or six animals, read-out: Radioactivity in Lung)?
Its tissue uptake dose at 10 min is 5.86 %ID.

And the tissue uptake dose at 1 h ([2]; male, ddY, mouse, in vivo, iv, total radioactivity, Lung, 60 min (1 h) after i.v. administration, alendronate 20 mg/kg i.v. 1 minute before, male ddY mice, mean (SD) for five or six animals)?
Its tissue uptake dose at 1 h is 4.07 %ID.

What about the tissue uptake dose at 10 min ([2]; male, ddY, mouse, in vivo, iv, total radioactivity, Muscle, 10 min after i.v. administration, alendronate 20 mg/kg i.v. 1 minute before, male ddY mice, mean (SD) for five or six animals, read-out: Radioactivity in Muscle) of the same compound?
The tissue uptake dose at 10 min was 0.53 %ID.

What about the tissue uptake dose at 10 min ([2]; male, ddY, mouse, in vivo, iv, total radioactivity, Spleen, 10 min after i.v. administration, alendronate 20 mg/kg i.v. 1 minute before, male ddY mice, mean (SD) for five or six animals, read-out: Radioactivity in Spleen) of the same compound?
Its tissue uptake dose at 10 min is 1.86 %ID.
